± gives the standard deviation of the averaged measurements.

In series [1] the test system is Saccharomyces cerevisiae. As to the kind of experiment: protein stability index of tFT-peptide fusion in deletion strain of DAS1 (PSI (0-1 scale)); higher = more stable (slower turnover). As to the method:
(§1)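 MPS profiling in S. cerevisiae of two library types built from selected 12-aa C-degron peptides (IN1, IN2, LN1, LN3, VN2, R1-R5, W1-W3, Atg1 and Rpa12 C-termini): saturation mutagenesis libraries and C-terminal +1 capping libraries (13 aa). Each peptide is fused to the C-terminus of a sfGFP-mCherry timer, after a GGGS linker. Cells are FACS-sorted into 8 mCherry/sfGFP bins and sequenced. PSI runs from 0 (unstable) to 1 (stable), measured once in wild type and in the das1Δ or doa10Δ background.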

The test system of series [2] is Saccharomyces cerevisiae. Description: protein stability index of tFT-peptide fusion in wild type (PSI (0-1 scale)); higher = more stable (slower turnover). Conditions: genetic background: wild type. As to the method:
as §1

Series [3] deals with Saccharomyces cerevisiae. As to the kind of experiment: protein stability index of tFT-peptide fusion (C-terminal peptide) (PSI (0-1 scale)); higher = more stable (slower turnover). Conditions: temperature: 30 C. As to the method: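 MPS profiling in S. cerevisiae of the yeast C-terminome library: the last 12 aa of each annotated ORF are fused to the C-terminus of a sfGFP-mCherry timer, after a GGGS linker. Cells are FACS-sorted into 8 mCherry/sfGFP bins and deep-sequenced. PSI runs from 0 (unstable) to 1 (stable); wild type and das1Δ backgrounds, two technical replicates each.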

Where [4] appears, read: genetic background: das1 deletion.
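Throughout, for protein stability index of tFT-peptide fusion in deletion strain of DAS1: PSI is a weighted mean of each variant's read distribution over the sorted stability bins, computed only for variants having over 10 reads in total.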
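Throughout, for protein stability index of tFT-peptide fusion in wild type: PSI derived as read-weighted mean over the 8 sorting bins, only variants exceeding 10 total reads kept, mCherry placed adjacent to the peptide and sfGFP distal.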

As to ACWRVGLWRGAS, the figures for the protein stability index in the series on Saccharomyces cerevisiae [1] and in the series with Saccharomyces cerevisiae [2] were 0.694 and 0.445, respectively.

In the case of AGWRVGLWRGAS, the protein stability index came out at 0.722 in the series on Saccharomyces cerevisiae [1] and 0.424 in the series with Saccharomyces cerevisiae [2].

For the sequence ALIQPLPVQFLN, the results for the protein stability index in the series on Saccharomyces cerevisiae [1] and in the series on Saccharomyces cerevisiae [2] were 0.649 and 0.101, respectively.

Take ALWRVGLWRGAS: the values for the protein stability index with Saccharomyces cerevisiae [1] and in the series with Saccharomyces cerevisiae [2] were 0.707 and 0.464, respectively.

For ARGAVGGWRLVG, the protein stability index with Saccharomyces cerevisiae [1] stood at 0.653; with Saccharomyces cerevisiae [2], 0.172.

Take ARWIVGLWRGAS: the protein stability index worked out at 0.684 with Saccharomyces cerevisiae [1] and 0.398 in the series on Saccharomyces cerevisiae [2].

Turning to ARWMVGLWRGAS, the protein stability index in the series on Saccharomyces cerevisiae [1] is 0.709; with Saccharomyces cerevisiae [2] it was 0.449.

With ARWRAGLWRGAS, the protein stability index stood at 0.7 in the series with Saccharomyces cerevisiae [1] and 0.653 in the series with Saccharomyces cerevisiae [2].

Take ARWRIGLWRGAS: the figures for the protein stability index in the series on Saccharomyces cerevisiae [1] and in the series with Saccharomyces cerevisiae [2] were 0.671 and 0.327, respectively.

Consider ARWRVALWRGAS, for which the protein stability index is 0.671 with Saccharomyces cerevisiae [1] and 0.254 in the series on Saccharomyces cerevisiae [2].

In the case of ARWRVCLWRGAS, the protein stability index in the series with Saccharomyces cerevisiae [1] turned out to be 0.705; with Saccharomyces cerevisiae [2], 0.397.

Consider ARWRVGLERGAS, for which the protein stability index in the series on Saccharomyces cerevisiae [1] was determined as 0.7; in the series with Saccharomyces cerevisiae [2], 0.661.

Take ARWRVGLGRGAS: the values for the protein stability index in the series on Saccharomyces cerevisiae [1] and in the series on Saccharomyces cerevisiae [2] were 0.679 and 0.456, respectively.

As to ARWRVGLKRGAS, the protein stability index in the series on Saccharomyces cerevisiae [1] worked out at 0.663; in the series on Saccharomyces cerevisiae [2], 0.627.

Consider ARWRVGLWFGAS, for which the figures for the protein stability index in the series on Saccharomyces cerevisiae [1] and in the series with Saccharomyces cerevisiae [2] were 0.666 and 0.626, respectively.

Consider ARWRVGLWRFAS, for which the protein stability index worked out at 0.675 in the series on Saccharomyces cerevisiae [1] and 0.101 in the series with Saccharomyces cerevisiae [2].

Consider ARWRVGLWRGAA, for which the protein stability index with Saccharomyces cerevisiae [1] is 0.675; in the series on Saccharomyces cerevisiae [2] it was 0.17.

In the case of ARWRVGLWRGAI, the protein stability index with Saccharomyces cerevisiae [1] was determined as 0.685; with Saccharomyces cerevisiae [2], 0.529.

Take ARWRVGLWRGASH: the protein stability index in the series with Saccharomyces cerevisiae [1] came to 0.685; with Saccharomyces cerevisiae [2], 0.66.

Consider ARWRVGLWRGASM, for which the values for the protein stability index in the series with Saccharomyces cerevisiae [1] and in the series on Saccharomyces cerevisiae [2] were 0.639 and 0.651, respectively.

For the sequence ARWRVGLWRGASR, the protein stability index with Saccharomyces cerevisiae [1] was determined as 0.676; in the series on Saccharomyces cerevisiae [2], 0.663.

For ARWRVGLWRGASW, the values for the protein stability index in the series with Saccharomyces cerevisiae [1] and in the series on Saccharomyces cerevisiae [2] were 0.71 and 0.67, respectively.

Take ARWRVGLWRGPS: the protein stability index with Saccharomyces cerevisiae [1] amounted to 0.69; in the series with Saccharomyces cerevisiae [2], 0.672.

With ARWRVGLWSGAS, the protein stability index in the series with Saccharomyces cerevisiae [1] stood at 0.693; in the series on Saccharomyces cerevisiae [2] it was 0.67.

For the sequence VTTTFDKVHQDW [LEU1 C-terminal 12 aa], the protein stability index in the series on Saccharomyces cerevisiae [3] (setting [4]) stood at 0.715 ± 0.017; in the series on Saccharomyces cerevisiae [3] (genetic background: wild type), 0.714 ± 0.058.

Regarding VTVSNVWFNQLQ [YPL197C C-terminal 12 aa], the protein stability index with Saccharomyces cerevisiae [3] (setting [4]) was determined as 0.70615 ± 0.00045; with Saccharomyces cerevisiae [3] (genetic background: wild type), 0.526 ± 0.014.

For the sequence VVCMVVLLAVLS [VAM3 C-terminal 12 aa], the protein stability index in the series with Saccharomyces cerevisiae [3] (setting [4]) turned out to be 0.148 ± 0.018; with Saccharomyces cerevisiae [3] (genetic background: wild type) it was 0.171 ± 0.012.

In the case of VVGEDEKDDFFE [EFG1 C-terminal 12 aa], the protein stability index in the series on Saccharomyces cerevisiae [3] (setting [4]) came to 0.721 ± 0.024; in the series on Saccharomyces cerevisiae [3] (genetic background: wild type) it was 0.691 ± 0.026.

For the sequence VVGRYMRSGLKK [NOP1 C-terminal 12 aa], the protein stability index was 0.6704 ± 0.005 with Saccharomyces cerevisiae [3] (setting [4]) and 0.682 ± 0.028 in the series on Saccharomyces cerevisiae [3] (genetic background: wild type).

On to VVNNRRQSRTPK [BLI1 C-terminal 12 aa], for which the figures for the protein stability index with Saccharomyces cerevisiae [3] (setting [4]) and in the series on Saccharomyces cerevisiae [3] (genetic background: wild type) were 0.707 ± 0.044 and 0.661 ± 0.0082, respectively.

As to VVYRHLHTKVSK [HAL5 C-terminal 12 aa], the protein stability index with Saccharomyces cerevisiae [3] (setting [4]) came out at 0.682 ± 0.0075; in the series with Saccharomyces cerevisiae [3] (genetic background: wild type), 0.658 ± 0.0043.

Turning to VYGRNGNESHST [YGR050C C-terminal 12 aa], the protein stability index was determined as 0.701 ± 0.019 with Saccharomyces cerevisiae [3] (setting [4]) and 0.689 ± 0.017 in the series on Saccharomyces cerevisiae [3] (genetic background: wild type).

For the sequence VYTSKTQYKFDI [YNR071C C-terminal 12 aa], the protein stability index is 0.6849 ± 0.0021 in the series on Saccharomyces cerevisiae [3] (setting [4]) and 0.694 ± 0.062 in the series with Saccharomyces cerevisiae [3] (genetic background: wild type).

With “WFICRMLSKVTL [YNR003W-A C-terminal 12 aa]”, the protein stability index in the series on Saccharomyces cerevisiae [3] (setting [4]) worked out at 0.609 ± 0.012; in the series on Saccharomyces cerevisiae [3] (genetic background: wild type), 0.595 ± 0.012.

(Values after the supplement of paper PMC10724198.)
